Source: the RNAGym collection of RNA variant scans (doi:10.1093/molbev/msab373)

B1: Azoarcus group I ribozyme (parent)
chain: GUGCCUUGCGCCGGGAAACCACGCAAGGGAUGGUGUCAAAUUCGGCGAAACCUAAGCGCCCGCCCGGGCGUAUGGCAACGCCGAGCCAAGCUUCGGCGCCUGCGCCGAUGAAGGUGUAGAGACUAGACGGCACCCACCUAAGGCAAACGCUAUGGUGAAGGCAUAGUCCAGGGAGUGGCGAAAGUCACACAAACCGG

Variants of: B1
Assay: reverse-splicing fitness (ratio to wild type); higher = more active; in vitro selection; Mg2+ level not given
In short: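 An in vitro group I ribozyme library with randomized positions was T7-transcribed and gel-purified. In triplicate, 10 pmol RNA in EPPS pH 7.5 was reacted with 50 pmoles of a 30-nt RNA substrate for 1 h at 37 °C across several added MgCl2 levels (1–48 mM), then stopped with EDTA. Products were reverse transcribed from a substrate-complementary primer, PCR-amplified and sequenced (HiSeq 4000). Fitness is a variant's read proportion after selection over that before, normalised to wild type.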

Variant | reverse-splicing fitness
C82G A111U A120G A145G C169G | 0.0141
C82G A111U A120G A145G C169A | 0.0111
C82G A111U A120G C150U C169G U176G | 0.0053
C82G A111U A120G C150U C169G U176C | 0.0205
C82G A111U A120G C150U C169G U176A | 0.0168
C82G A111U A120G C150G U176C | 0.0117
C82G A111U A120G C150G U176G | 0.00354
C82G A111U A120G C150G U176A | 0.00658
C82G A111U A120G A145U C169G | 0.0137
C82G A111U A120G A145U C169A | 0.00825
C82G A111U A120G A145U C169U | 0.01
C82G A111U A120C C150G C169G U176G | 0.00747
C82G A111U A120C C150G C169G U176C | 0.00622
C82G A111U A120C C150G C169G U176A | 0.00766
C82G A111U A120G A145C C150A | 0.00696
C82G A111U A120G A145C C150U | 0.00849
C82G A111U A120G A145C C150G | 0.00659
C82G A111U A120G C169A | 0.00993
C82G A111U A120C C150A C169G U176C | 0.0267
C82G A111U A120C C150A C169G U176A | 0.0181
C82G A111U A120C C150A C169G U176G | 0.00701

Variant | reverse-splicing fitness
C82G A111U A120G A145C U176C | 0.0136
C82G A111U A120G A145C U176G | 0.0065
C82G A111U A120G A145C U176A | 0.012
C82G A111U A120G A145C C150A C169A U176G | 0.00583
C82G A111U A120G A145C C150A C169A U176C | 0.00752
C82G A111U A120G A145C C150A C169A U176A | 0.0145
C82G A111U A120G A145U C150U U176C | 0.0175
C82G A111U A120G A145U C150U U176G | 0.00663
C82G A111U A120G A145U C150U U176A | 0.0118
C82G A111U A120G A145C C150A C169G U176A | 0.0229
C82G A111U A120G A145C C150A C169G U176G | 0.00516
C82G A111U A120G A145C C150A C169G U176C | 0.0144
C82G A111U A120G A145U C150G C169A U176G | 0.00513
C82G A111U A120G A145U C150G C169A U176A | 0.0104
C82G A111U A120G A145U C150G C169A U176C | 0.0114
C82G A111U A120G A145U C169A U176A | 0.0133
C82G A111U A120G A145U C169A U176G | 0.00445
C82G A111U A120G A145U C169A U176C | 0.0135
C82G A111U A120G A145U C150A C169A | 0.00975
C82G A111U A120G A145U C150A C169U | 0.00711
C82G A111U A120G A145U C150A C169G | 0.00835
